This is an account of results in patent publication US20040005672A1, “Heterologous production of polyketides” (priority 2002, published 2004).

The nature of data set [1]: Stability of acyl-CoAs in TCA and mutase assay buffer (HPLC). In kind it is physicochemical. The conditions noted are these: five minutes under the mutase assay conditions, 30° C. The method, then: To test whether acyl-CoAs degrade in TCA, the following tests were conducted. The CoA mix consisted of 1.6 mM each of malonyl-, methylmalonyl-, succinyl-, acetyl-, and propionyl-CoA, plus 0.5 mM CoA. An aliquot (10 μL) of this mix was added to 100 μL 10% TCA, 50 μL were immediately injected to the HPLC for CoA analysis, and the remainder was promptly frozen on dry ice. The frozen portion was then thawed and loaded immediately to the HPLC. Again, 10 μL of the CoA mix were added to 100 μL 10% TCA, 50 μL were left on ice for 15 minutes and then injected to the HPLC, the remainder was left at 4° C. overnight and injected to the HPLC the next morning. The area under each CoA peak was noted. This same procedure was followed but using a mixture of TCA and buffer A from the mutase assay.
The CoA analysis described here is carried out on cells which are lysed in 10% TCA. […] Thus, the CoAs are stable in TCA and in the mutase assay buffer after the cells are lysed or after the assays are completed, and prior to HPLC analysis.
Although the CoAs are stable in TCA and buffer at 4° C., they degraded at 30° C., the temperature at which the mutase assay was performed. In five minutes under the assay conditions, about 4% of the methylmalonyl-CoA hydrolyzed to CoA. […] Thus, the mutase assay is suboptimal for extremely quantitative results.

Data set [2] can be described thus: Spontaneous chemical epimerization between (R)- and (S)-mm-CoA. The format is physicochemical. To be noted: in 15 minutes.
The subject of data set [3] is DEBS or DEBS1+TE. To be noted: cited from earlier work.
Substrate in data set [4]: C[C@H](C(=O)O)C(=O)SCCNC(=O)CCNC(=O)[C@H](O)C(C)(C)COP(=O)(O)OP(=O)(O)OC[C@H]1O[C@@H](n2cnc3c(N)ncnc32)[C@H](O)[C@@H]1OP(=O)(O)O
In words: Methylmalonyl-CoA epimerase steady state kinetics (transcarboxylase/malate dehydrogenase coupled assay, A340). In kind it is biochemical, Propionibacterium freudenreichii subsp. shermanii. The conditions noted are these: other: 30° C, pH 6.9, (2RS)-methylmalonyl-CoA 27 μM to 160 μM, (2R) concentration assumed one-half of (2RS), epimerase activated with CoCl2. The method, then:
(§1) Methylmalonyl-CoA epimerase assay. Enzyme activity was assayed at 30° C. using a modification of a reported method (27). The epimerase (0.54 mg/ml) was first activated with 100 μM CoCl2 at 4° C. for 1 h. Reaction mixtures (1.5 mL) contained 0.2 M potassium phosphate buffer pH 6.9, 0.1 M NH4SO4, 5 mM Na pyruvate, 0.08 mM (2RS)-methylmalonyl-CoA, 0.05 units transcarboxylase, 0.16 mM NADH, and 2.5 units of malate dehydrogenase. The reaction was initiated with (2RS)-methylmalonyl-CoA, and the decrease in A340 concomitant with consumption of the S-isomer was allowed to stabilize. Limiting epimerase was added to catalyze conversion of the remaining R- to S-isomer, and the initial rate and total decrease in A340 were monitored. For kinetic studies, -1.2 nM epimerase was incubated with varying amounts of (2RS)-methylmalonyl-CoA (27 μM to 160 μM). The (2R)-methylmalonyl-CoA concentrations were assumed to be one-half of the concentration of (2RS)-methylmalonyl-CoA.
Heterologous expression and purification of the epimerases. E. coli BL21(DE3) harboring either pKOS143-28-8 (P. shermanii epimerase) or pKOS117-174-A37 (S. coelicolor epimerase) was grown in 750 ml LB (100 μg/ml carbenicillin) at 37° C. until late log phase, then induced with IPTG to 1 mM final concentration and grown for an additional 3 h at 30° C. The cells were collected by centrifugation, and the pellets were stored at −80° C. […]

Data set [5] in a line: Methylmalonyl-CoA mutase assay in crude cell extracts (HPLC, conversion of methylmalonyl-CoA to succinyl-CoA). To be noted: cells grown without hydroxocobalamin; extracts not supplemented with B12. In kind it is biochemical. As to the method: The mutase assay was performed as follows. All operations were performed in the dark or under a red safelight. The pellet from 25 mL of culture was thawed, washed in buffer C (50 mM potassium phosphate pH 7.4, 5 mM EDTA, 10% glycerol), and resuspended in 0.5 mL of buffer C containing protease inhibitors (1 tablet per 10 mL of buffer). Following sonication on ice, the extract was clarified by centrifugation at 4° C. for 10 minutes at maximum speed in an Eppendorf microfuge; the supernatent was assayed. Enzyme assays contained, in a final volume of 100 μL, 0.2 mM (2R,2S)-methylmalonyl-CoA, mutase extract, and buffer C containing protease inhibitors. Reactions for assays with vitamin B12 were as above but contained 0.01 mM vitamin B12, in which case the mutase extract was incubated with the vitamin B12 in a total volume of 75 μL for 5 minutes at 30° C. prior to initiation of reaction with methylmalonyl-CoA. After the desired length of incubation at 30° C., the reaction was stopped by the addition of 50 μL of 10% trichloroacetic acid (TCA) and placed on ice for approximately 10 minutes. […] An aliquot (100 μL) of the supernatant was injected onto the HPLC to quantify conversion of methylmalonyl-CoA to succinyl-CoA. […]
Methylmalonyl-CoA mutase assay. […] After centrifugation, 100 μl of the supernatant was analyzed by HPLC to quantify conversion of methylmalonyl-CoA to succinyl-CoA.

Substrate in data set [6]: C[C@H](C(=O)O)C(=O)SCCNC(=O)CCNC(=O)[C@H](O)C(C)(C)COP(=O)(O)OP(=O)(O)OC[C@H]1O[C@@H](n2cnc3c(N)ncnc32)[C@H](O)[C@@H]1OP(=O)(O)O
In words: Methylmalonyl-CoA epimerase steady state kinetics (transcarboxylase/malate dehydrogenase coupled assay, A340). To be noted: other: 30° C, pH 6.9, (2RS)-methylmalonyl-CoA 27 μM to 160 μM, (2R) concentration assumed one-half of (2RS), epimerase activated with CoCl2. In kind it is biochemical, Streptomyces coelicolor. The method, then:
as §1
S. coelicolor methylmalonyl-CoA epimerase gene. The P. shermanii methylmalonyl-CoA epimerase DNA sequence was used to search the S. coelicolor genomic database (www.sanger.ac.uk/Projects/S coelicolor) using the BLAST programs at the National Center for Biotechnology Information, NIH website (37), and S. coelicolor gene 8F4.02c was identified as a putative methylmalonyl-CoA epimerase. […]

“Also recorded” adds a separate entry of the source.

Regarding `CC(C)(COP(=O)(O)OP(=O)(O)OC[C@H]1O[C@@H](n2cnc3c(N)ncnc32)[C@H](O)[C@@H]1OP(=O)(O)O)[C@@H](O)C(=O)NCCC(=O)NCCSC(=O)CCC(=O)O` [succinyl-CoA], the “hydrolyzed to CoA” value in data set [1] is given as “comparable rate”. Regarding `CC(C(=O)O)C(=O)SCCNC(=O)CCNC(=O)[C@H](O)C(C)(C)COP(=O)(O)OP(=O)(O)OC[C@H]1O[C@@H](n2cnc3c(N)ncnc32)[C@H](O)[C@@H]1OP(=O)(O)O` (stereo partly drawn) [methylmalonyl-CoA], in data set [1], the “hydrolyzed to CoA” value was “about 4%”. The spontaneous chemical epimerization result in data set [2] is “approximately 3%”. Usually Km stands for the substrate concentration at which the rate is half of its maximum. `C[C@@H](C(=O)O)C(=O)SCCNC(=O)CCNC(=O)[C@H](O)C(C)(C)COP(=O)(O)OP(=O)(O)OC[C@H]1O[C@@H](n2cnc3c(N)ncnc32)[C@H](O)[C@@H]1OP(=O)(O)O` [(2S)-methylmalonyl-CoA]: the Km in data set [3] is around 25 µM.

B1: Propionibacterium shermanii methylmalonyl-CoA epimerase (EC 5.1.99.1), wild type, recombinant, GenBank AY046899 (Propionibacterium freudenreichii subsp. … (protein)
chain: MSNEDLFICIDHVAYACPDADEASKYYQETFGWHELHREENPEQGVVEIMMAPAAKLTEHMTQVQVMAPLNDESTVAKWLAKHNGRAGLHHMAWRVDDIDAVSATLRERGVQLLYDEPKLGTGGNRINFMHPKSGKGVLIELTQYPKN
By kcat is commonly meant the maximal rate divided by the concentration of active sites. As to B1, in data set [4], the Km stood at 38 µM and the kcat was 150 s⁻¹.

B2: mutase: methylmalonyl-CoA mutase (EC 5.4.99.2) from P. shermanii, expressed in E. coli (protein, UniProt P11652 2-638; P11653 2-728, looked up)
Methylmalonyl-CoA mutase … 1: SSTDQGTNPADTDDLTPTTLSLAGDFPKATEEQWEREVEKVLNRGRPPEKQLTFAECLKRLTVHTVDGIDIVPMYRPKDAPKKLGYPGVAPFTRGTTVRNGDMDAWDVRALHEDPDEKFTRKAILEGLERGVTSLLLRVDPDAIAPEHLDEVLSDVLLEMTKVEVFSRYDQGAAAEALVSVYERSDKPAKDLALNLGLDPIAFAALQGTEPDLTVLGDWVRRLAKFSPDSRAVTIDANIYHNAGAGDVAELAWALATGAEYVRALVEQGFTATEAFDTINFRVTATHDQFLTIARLRALREAWARIGEVFGVDEDKRGARQNAITSWRDVTREDPYVNILRGSIATFSASVGGAESITTLPFTQALGLPEDDFPLRIARNTGIVLAEEVNIGRVNDPAGGSYYVESLTRSLADAAWKEFQEVEKLGGMSKAVMTEHVTKVLDACNAERAKRLANRKQPITAVSEFPMIGARSIETKPFPAAPARKGLAWHRDSEVFEQLMDRSTSVSERPKVFLACLGTRRDFGGREGFSSPVWHIAGIDTPQVEGGTTAEIVEAFKKSGAQVADLCSSAKVYAQQGLEVAKALKAAGAKALYLSGAFKEFGDDAAEAEKLIDGRLFMGMDVVDTLSSTLDILGVAK
Methylmalonyl-CoA mutase … 2: STLPRFDSVDLGNAPVPADAARRFEELAAKAGTGEAWETAEQIPVGTLFNEDVYKDMDWLDTYAGIPPFVHGPYATMYAFRPWTIRQYAGFSTAKESNAFYRRNLAAGQKGLSVAFDLPTHRGYDSDNPRVAGDVGMAGVAIDSIYDMRELFAGIPLDQMSVSMTMNGAVLPILALYVVTAEEQGVKPEQLAGTIQNDILKEFMVRNTYIYPPQPSMRIISEIFAYTSANMPKWNSISISGYHMQEAGATADIEMAYTLADGVDYIRAGESVGLNVDQFAPRLSFFWGIGMNFFMEVAKLRAARMLWAKLVHQFGPKNPKSMSLRTHSQTSGWSLTAQDVYNNVVRTCIEAMAATQGHTQSLHTNSLDEAIALPTDFSARIARNTQLFLQQESGTTRVIDPWSGSAYVEELTWDLARKAWGHIQEVEKVGGMAKAIEKGIPKMRIEEAAARTQARIDSGRQPLIGVNKYRLEHEPPLDVLKVDNSTVLAEQKAKLVKLRAERDPEKVKAALDKITWAAGNPDDKDPDRNLLKLCIDAGRAMATVGEMSDALEKVFGRYTAQIRTISGVYSKEVKNTPEVEEARELVEEFEQAEGRRPRILLAKMGQDGHDRGQKVIATAYADLGFDVDVGPLFQTPEETARQAVEADVHVVGVSSLAGGHLTLVPALRKELDKLGRPDILITVGGVIPEQDFDELRKDGAVEIYTPGTVIPESAISLVKKLRASLDA
With B2, the mutase activity entry in data set [5] is on record as “no mutase activity was observed; also recorded: undetectable”.

B3: Streptomyces coelicolor methylmalonyl-CoA epimerase, wild type, recombinant (gene 8F4.02c) (Streptomyces coelicolor A3(2)) (protein)
chain: MLTRIDHIGIACHDLDATVEFYRATYGFEVFHTEVNEEQGVREAMLKINDTSDGGASYLQLLEPTREDSAVGKWLAKNGEGVHHIAFGTADVDADAADIRDKGVRVLYDEPRRGSMGSRITFLHPKDCHGVLTELVTSAAVESPEH
notes: (2RS)-methylmalonyl-CoA substrate
Take B3: in data set [6], the Km turned out to be 57 µM and the kcat came to 75 s⁻¹.
